Source: patent US20100144025A1

Assays:
[1] = biological target: HLA-A24 molecule (the product of HLA-A*2402 gene) (human)
[2] = biological target: HLA-A2 molecule (the product of HLA-A*0201 gene) (human)
[3] = biological target: HLA-A2 molecule (the product of HLA-A*0206 gene) (human)

With DWIPLALTI (modifications not checked) [SEQ ID NO 25] the -log Kd [1] was 8 -log Kd.

With IVLEHGSCV (modifications not checked) [SEQ ID NO 27] the -log Kd [2] was 5.74 -log Kd and the -log Kd [3] was 6.02 -log Kd.

ALHQVFGAI (modifications not checked) [SEQ ID NO 38] was tested, and the -log Kd [2] was 6.77 -log Kd.

In the case of RLITVNPIV (modifications not checked) [SEQ ID NO 31], the -log Kd [2] is reported as 5.64 -log Kd.

WYAQIQPHW (modifications not checked) [SEQ ID NO 1] was tested, and the -log Kd [1] was 8.64 -log Kd.

AWLVHRQWF (modifications not checked) [SEQ ID NO 10] was tested, and the -log Kd [1] was 8.39 -log Kd.

TLYAVATTF (modifications not checked) [SEQ ID NO 11] was tested, and the -log Kd [1] was 7.58 -log Kd.

For ALSELPETL (modifications not checked) [SEQ ID NO 12], the -log Kd [2] was 6.05 -log Kd and the -log Kd [1] was 5.5 -log Kd.

For NLVRLQSGV (modifications not checked) [SEQ ID NO 30], the -log Kd [2] was 4.7 -log Kd.

KLMKITAEW (modifications not checked) [SEQ ID NO 16] was tested, and the -log Kd [1] was 7.21 -log Kd.

In the case of HWPKSHTLW (modifications not checked) [SEQ ID NO 7], the -log Kd [1] is reported as 8.66 -log Kd.

For HVLGRLITV (modifications not checked) [SEQ ID NO 45], the -log Kd [3] was 6.25 -log Kd.

In the case of LVISGLFPV (modifications not checked) [SEQ ID NO 41], the -log Kd [3] is reported as 6.61 -log Kd.

For FLIDGPETA (modifications not checked) [SEQ ID NO 35], the -log Kd [2] was 6.05 -log Kd.

For AYNHALSEL (modifications not checked) [SEQ ID NO 23], the -log Kd [1] was 7.68 -log Kd.

With ALHQVFGAI (modifications not checked) [SEQ ID NO 19] the -log Kd [1] was 6.05 -log Kd.

For IQKETLVTF (modifications not checked) [SEQ ID NO 18], the -log Kd [1] was 7.24 -log Kd.

QILEENVEV (modifications not checked) [SEQ ID NO 50] was tested, and the -log Kd [3] was 5.61 -log Kd.

In the case of SLRPQPTEL (modifications not checked) [SEQ ID NO 34], the -log Kd [2] is reported as 5.05 -log Kd.

For GLNPTAIFL (modifications not checked) [SEQ ID NO 8], the -log Kd [1] was 6.39 -log Kd.

In the case of AFSGVSWTM (modifications not checked) [SEQ ID NO 2], the -log Kd [1] is reported as 8.19 -log Kd.

In the case of YVVIAILTV (modifications not checked) [SEQ ID NO 47], the -log Kd [3] is reported as 5.86 -log Kd.

LALLAAFKV (modifications not checked) [SEQ ID NO 43] was tested, and the -log Kd [3] was 6.47 -log Kd.

In the case of ILIRTGLLV (modifications not checked) [SEQ ID NO 33], the -log Kd [2] is reported as 6.53 -log Kd.

With PFPQSNAPI (modifications not checked) [SEQ ID NO 5] the -log Kd [1] was 8.22 -log Kd.

For SVIEKMEAL (modifications not checked) [SEQ ID NO 48], the -log Kd [3] was 6.37 -log Kd.

For GFLNEDHWF (modifications not checked) [SEQ ID NO 20], the -log Kd [1] was 6.76 -log Kd.

FQPESPSKL (modifications not checked) [SEQ ID NO 36] was tested, and the -log Kd [2] was 6.31 -log Kd.

With PLNEAIMAV (modifications not checked) [SEQ ID NO 29] the -log Kd [2] was 6.49 -log Kd.

With ELPETLETL (modifications not checked) [SEQ ID NO 9] the -log Kd [2] was 6.32 -log Kd and the -log Kd [1] was 7.01 -log Kd.

RTLRVLNLV (modifications not checked) [SEQ ID NO 49] was tested, and the -log Kd [3] was 5.97 -log Kd.

YMPSVIEKM (modifications not checked) [SEQ ID NO 15] was tested, and the -log Kd [2] was 6.58 -log Kd and the -log Kd [1] was 7.17 -log Kd.

For ALVAFLRFL (modifications not checked) [SEQ ID NO 21], the -log Kd [1] was 5.68 -log Kd.

PMSTYGWNL (modifications not checked) [SEQ ID NO 22] was tested, and the -log Kd [1] was 7.62 -log Kd.
